Drawing on patent US20240327535A1 (EISAI R AND D MANAGEMENT, published 2024), this text covers Kd for eight molecules.

The target of test [1] is T1, extracellular domain of human BCMA (human, UniProt Q02223 1-54).
T1 construct: amine-linked to Octet AR2G tips; also called hsBCMA; BCMA (human)
T1 sequence: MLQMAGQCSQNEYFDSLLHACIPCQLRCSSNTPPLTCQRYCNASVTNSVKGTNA
Briefly: Octet BLI; Fab 200 nM.

The target in test [2] is T2, extracellular domain of rhesus monkey BCMA (rhesus monkey, UniProt F7FFA0 1-53).
T2 construct: extracellular domain; also called RhBCMA
Briefly: Octet BLI; Fab 200 nM.

T2 sequence (F7FFA0 entry or part of it): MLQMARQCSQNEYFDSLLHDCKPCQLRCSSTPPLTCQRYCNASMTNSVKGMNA

B1: AB200-R1a-Fab_Vk20 (Fab, V domains shown)
VH: QVQLVQSGAEVKKPGSSVKVSCKASGGTFSNYWMHWVRQAPGQGLEWMGATYRGHSDTYYNQKFKGRVTITADKSTSTAYMELSSLRSEDTAVYYCARGAIYHGYDVLDNWGQGTLVTVSS
VL: DIQMTQSPSSLSASVGDRVTITCSASQDISNFLNWYQQKPGKAPKLLIYYTSDLHSGVPSRFSGSGSGTDFTLTISSLQPEDFATYYCQQYYKLPWTFGQGTKLEIKR
With B1, the figures for the equilibrium dissociation constant (Kd) in test [1] and in test [2] were 12.8 nM and 13.5 nM, respectively.

B2: AB200-R1a-Fab_Vk22 (Fab, V domains shown)
VH: QVQLVQSGAEVKKPGSSVKVSCKASGGTFSNYWMHWVRQAPGQGLEWMGATYRGHSDTYYNQKFKGRVTITADKSTSTAYMELSSLRSEDTAVYYCARGAIYHGYDVLDNWGQGTLVTVSS
VL: DIQMTQSPSSLSASVGDRVTITCRASQDISNYLNWYQQKPGKAPKLLIYYTSNLHSGVPSRFSGSGSGTDFTLTISSLQPEDFATYYCQQYRSIPWTFGQGTKLEIKR
Take B2: the Kd in test [1] is 2.48 nM; in test [2], 9.91 nM.

B3: AB200-R1a-Fab_Vk21 (Fab, V domains shown)
VH: QVQLVQSGAEVKKPGSSVKVSCKASGGTFSNYWMHWVRQAPGQGLEWMGATYRGHSDTYYNQKFKGRVTITADKSTSTAYMELSSLRSEDTAVYYCARGAIYHGYDVLDNWGQGTLVTVSS
VL: DIQMTQSPSSLSASVGDRVTITCSASQDISNYLNWYQQKPGKAPKLLIYYTSNLHSGVPSRFSGSGSGTDFTLTISSLQPEDFATYYCHQYKKTPWTFGQGTKLEIKR
On to B3, for which the equilibrium dissociation constant (Kd) in test [1] is 32.7 nM; in test [2], 61.4 nM.

B4: AB200-R1a-Fab_Vk24 (Fab, V domains shown)
VH: QVQLVQSGAEVKKPGSSVKVSCKASGGTFSNYWMHWVRQAPGQGLEWMGATYRGHSDTYYNQKFKGRVTITADKSTSTAYMELSSLRSEDTAVYYCARGAIYHGYDVLDNWGQGTLVTVSS
VL: DIQMTQSPSSLSASVGDRVTITCSASNSISNYLNWYQQKPGKAPKLLIYYASNLHSGVPSRFSGSGSGTDFTLTISSLQPEDFATYYCQQYRKLPWTFGQGTKLEIKR
Consider B4, for which the Kd in test [1] amounted to 5.11 nM; in test [2] it was 14.2 nM.

B5: AB200-R1a-Fab_Vk28 (Fab, V domains shown)
VH: QVQLVQSGAEVKKPGSSVKVSCKASGGTFSNYWMHWVRQAPGQGLEWMGATYRGHSDTYYNQKFKGRVTITADKSTSTAYMELSSLRSEDTAVYYCARGAIYHGYDVLDNWGQGTLVTVSS
VL: DIQMTQSPSSLSASVGDRVTITCSASQDISNFLNWYQQKPGKAPKLLIYYTSNMHSGVPSRFSGSGSGTDFTLTISSLQPEDFATYYCQQYRSLPWTFGQGTKLEIKR
As to B5, the Kd turned out to be 4.87 nM in test [1] and 7.57 nM in test [2].

B6: AB200-R1a-Fab_Vk26 (Fab, V domains shown)
VH: QVQLVQSGAEVKKPGSSVKVSCKASGGTFSNYWMHWVRQAPGQGLEWMGATYRGHSDTYYNQKFKGRVTITADKSTSTAYMELSSLRSEDTAVYYCARGAIYHGYDVLDNWGQGTLVTVSS
VL: DIQMTQSPSSLSASVGDRVTITCSASQDISNYLNWYQQKPGKAPKLLIYYSSSLHIGVPSRFSGSGSGTDFTLTISSLQPEDFATYYCQQYRKLPWTFGQGTKLEIKR
Regarding B6, the Kd is 5.56 nM in test [1] and 17.9 nM in test [2].

B7: AB200-R1a-Fab_Vk27 (Fab, V domains shown)
VH: QVQLVQSGAEVKKPGSSVKVSCKASGGTFSNYWMHWVRQAPGQGLEWMGATYRGHSDTYYNQKFKGRVTITADKSTSTAYMELSSLRSEDTAVYYCARGAIYHGYDVLDNWGQGTLVTVSS
VL: DIQMTQSPSSLSASVGDRVTITCSASQDITNYLNWYQQKPGKAPKLLIYFTSNLHSGVPSRFSGSGSGTDFTLTISSLQPEDFATYYCQQYYKLPWTFGQGTKLEIKR
Take B7: the Kd is 6.39 nM in test [1] and 10.7 nM in test [2].

B8: AB200-R1a-Fab_Vk23 (Fab, V domains shown)
VH: QVQLVQSGAEVKKPGSSVKVSCKASGGTFSNYWMHWVRQAPGQGLEWMGATYRGHSDTYYNQKFKGRVTITADKSTSTAYMELSSLRSEDTAVYYCARGAIYHGYDVLDNWGQGTLVTVSS
VL: DIQMTQSPSSLSASVGDRVTITCSASQDISNYLNWYQQKPGKAPKLLIYYTSNIHSGVPSRFSGSGSGTDFTLTISSLQPEDFATYYCQQYKKMPWTFGQGTKLEIKR
As for B8, the figures for the Kd in test [1] and in test [2] were 16.8 nM and 29.7 nM, respectively.
